Experimental data as given in patent US20240116987A1, “POLYPEPTIDE INHIBITORS OF LACTATE DEHYDROGENASE ACTIVITY FOR USE IN CANCER THERAPY” (UNIVERSITÉ CATHOLIQUE DE LOUVAIN, priority 2021, published 2024).

What was measured:
[1] = Intrinsic tryptophan fluorescence spectra; type: physicochemical, human; details: 1.3 μM, λexc 286 nm, n=6
Procedure: (§1) All spectrophotometric experiments were performed with opaque 96-well plates using a Spectramax m2e spectrophotometer (Molecular Devices) following previously described in Thabault et al. (see above).
(§2) Intrinsic fluorescence assays: full tryptophan fluorescence spectra were recorded using an excitation wavelength of 286 nm and recording the emission spectra from 320 to 400 nm at room temperature. The raw fluorescence of each experiment was subtracted to a corresponding control experiment without the protein. Experiments were performed in a 50 mM sodium phosphate and 100 mM NaCl, pH 7.6, buffer. For dissociation in subunits, increasing amounts of guanidinium-HCl ranging from 0.3 M to 2 M were put in contact with the studied proteins (1.3 μM), and fluorescence spectra were recorded afterwards.

[2] = Chemical denaturation with guanidinium-HCl followed by intrinsic fluorescence; type: physicochemical, human; details: protein 1.3 μM, means ± SEM, n=6
Procedure: as §1, §2

[3] = NanoDSF thermal denaturation of LDH-H variants; type: physicochemical, human; details: for Ratio 350/330 nm (initial): nanoDSF fluorescence ratio; for Tm: means ± SEM, n=6
Procedure: NanoDSF was performed following previously described by Thabault et al. (see above). • a) Variant evaluation
Solutions of proteins (LDH-H, LDH-Htr, or variants), stored in a 50 mM sodium phosphate, 100 mM NaCl and 20% glycerol, pH 7.6, were evaluated on a Tycho NT.6 device (NanoTemper Technologies®) using concentrations […]. According to standard manufacturer's procedures, samples were poured into capillaries and heated up to 95° C. in 3 min, while following fluorescence emission at 330 and 350 nm. Melting temperatures were extracted from the derivative of the 350/330 nm fluorescence ratios upon increasing temperature. • b) Peptide evaluation

tetrameric LDH-5 = tetrameric LDH-5 (Homo sapiens, UniProt P00338); experiment: NanoDSF thermal destabilization of tetrameric LDH-5 by peptide; type: binding
Procedure: (§3) NanoDSF was performed following previously described by Thabault et al. (see above). • a) Variant evaluation Solutions of proteins (LDH-1, LDH-5 or LDH-Htr) with peptides were evaluated on a Tycho NT.6 device (NanoTemper Technologies®). Evaluations were performed in a 50 mM sodium phosphate and 100 mM NaCl pH 7.6 buffer. According to standard manufacturer's procedures, samples were poured into capillaries and treated as above.

LDH-Htr = target: T1, LDH-Htr (Homo sapiens, UniProt P07195); experiment: Microscale thermophoresis (MST) binding to labelled LDH-Htr; details: 1.5 s MST on time, n=3, labelled LDH-Htr 100 nM
T1 construct: using the model of dimeric LDH (LDH-Htr); made in house; host or cells: E. coli Rosetta (DE3)
T1 sequence (P07195 21-334): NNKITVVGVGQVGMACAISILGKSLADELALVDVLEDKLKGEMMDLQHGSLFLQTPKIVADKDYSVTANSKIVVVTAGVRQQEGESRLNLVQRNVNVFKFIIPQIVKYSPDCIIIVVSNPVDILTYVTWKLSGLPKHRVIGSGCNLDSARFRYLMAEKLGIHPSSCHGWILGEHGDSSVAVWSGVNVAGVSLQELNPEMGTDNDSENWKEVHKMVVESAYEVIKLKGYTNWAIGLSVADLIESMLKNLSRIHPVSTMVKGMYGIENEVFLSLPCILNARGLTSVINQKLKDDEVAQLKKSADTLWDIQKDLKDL
Procedure: MST measurements were performed on a Nanotemper® Monolith NT.115 instrument (NanoTemper Technologies®) using Red-dye-NHS fluorescent labelling. LDH-Htr purified to homogeneity was labelled with the Monolith Red-dye-NHS 2nd generation labelling dye (Nanotemper Technologies®), according to the supplied protocol. Measurements were performed in 50 mM sodium phosphate, pH 7.6, and 100 mM NaCl containing 0.01% Tween-20 in standard-treated capillaries (NanoTemper Technologies®). The final concentration of proteins in the assay was 100 nM. Ligands were titrated in 1:1 dilutions following manufacturer's recommendations. Experiments were performed in triplicates using 40% LED power, high MST power, […] and Laser off time 3 s. Poypeptides were evaluated for their thermophoretic pattern, and Kd's were extracted from raw data at a 1.5 s MST on time following the manufacturer's instructions.

dimeric LDH-Htr [4] = target: T2, dimeric LDH-Htr (Homo sapiens, UniProt P07195); experiment: NMR WaterLOGSY with dimeric LDH-Htr; type: binding; details: LDH-Htr 15 μM, LP-22 400 μM
T2 construct: using the model of dimeric LDH (LDH-Htr); made in house; host or cells: E. coli Rosetta (DE3)
T2 sequence (P07195 21-334): as above
Procedure: Human LDH-H (full length and truncated)-6His proteins for ^1D NMR were expressed and purified from E. coli, as described above. All experiments were performed on an […] system equipped with a broadband cryoprobe (Bruker®) following a previously described in Thabault et al. (see above).
For WaterLOGSY NMR studies, samples were prepared in 10% D2O containing 50 mM sodium phosphate buffer, pH 7.6, and 100 mM NaCl. The concentration of LDHs was ranging from 15 to 20 μM of monomer. Ligand binding was detected using a WaterLOGSY ephogsygpno.2 avance-version sequence with a 1 s mixing time. Water signal suppression was achieved using an excitation-sculpting scheme, and a 50 ms spinlock was used to suppress protein background signals.

dimeric LDH-Htr [5] = target: T2, dimeric LDH-Htr; experiment: NanoDSF thermal shift of dimeric LDH-Htr with peptide; type: binding; details: LDH-Htr 15 μM, polypeptide 500 μM, n=3
Procedure: as §3

EC50 [2] [µM]	Destabilizing effect on LDH-5 compared to LDH-1 (tetrameric LDH-5; nanoDSF, tetrameric LDH-5 vs LDH-1)	Kd (LDH-Htr) [µM]	WaterLOGSY saturation transfer with dimeric LDH-Htr (dimeric LDH-Htr [4])	ΔTm of dimeric LDH-Htr (stabilization) (dimeric LDH-Htr [5]) [°C]	EC50 (tetrameric LDH-5; LDH-5 300 nM, n=3, read-out: EC50 of ΔTm (destabilization) of tetrameric LDH-5) [µM]	Molecule	Tryptophan fluorescence intensity compared with LDH-1 [1]	NanoDSF denaturation pattern [3]	Ratio 350/330 nm (initial) [3]	Tm ([3]; nanoDSF) [°C]	Tm difference versus LDH-Htr ([3]; nanoDSF) [°C]
< 100000						F72A: LDH-H recombinant alanine variant F72A of SEQ ID NO: 2	decays in fluorescence intensity characteristic of the dimeric forms of LDHs	denaturation patterns comparable to dimeric LDH-Htr	0.94	53.9 ± 0.1	
< 100000						E62A: LDH-H recombinant alanine variant E62A of SEQ ID NO: 2	decays in fluorescence intensity characteristic of the dimeric forms of LDHs	denaturation patterns comparable to dimeric LDH-Htr	0.95	58.9 ± 0.1	
	higher destabilizing effect	156	undergoes a saturation transfer	2.8		CSCC[C@H](NC(=O)[C@H](CCC(=O)O)NC(=O)CNC(=O)[C@H](CCCCN)NC(=O)[C@H](CC(C)C)NC(=O)[C@H](CCCCN)NC(=O)[C@H](CC(=O)O)NC(=O)[C@H](CCC(=O)O)NC(=O)[C@@H](N)CC(C)C)C(=O)N[C@@H](CCSC)C(=O)N[C@@H](CC(=O)O)C(=O)N[C@@H](CC(C)C)C(=O)N[C@@H](CCC(N)=O)C(=O)N[C@@H](Cc1c[nH]cn1)C(=O)NCC(=O)N[C@@H](CO)C(=O)N[C@@H](CC(C)C)C(=O)N[C@@H](Cc1ccccc1)C(=O)N[C@@H](CC(C)C)C(=O)N[C@@H](CCC(N)=O)C(=O)N[C@H](C(=O)N1CCC[C@H]1C(N)=O)[C@@H](C)O [LP-22]					
< 100000						LDH-Htr: dimeric model of LDH-H obtained by truncating its N-terminal tetramerization domain [reference compound]		concentration-dependent destabilization	0.87	57.5 ± 0.1	
< 100000						L71A: LDH-H recombinant alanine variant L71A of SEQ ID NO: 2	not L71A	a lower initial ratio and a red-shift	0.90	67.1 ± 0.1	10
		240			262	Ac-GEMMDLQHGSLFLQTP-NH2 [GP-16]					
